Laboratory results from US8586570B2, “Sox-based kinase sensor” (Massachusetts Institute of Technology, priority 2006, dated 2013).

Columns and labels:
PKCι = molecular target: T1, PKCι (Homo sapiens, UniProt P41743); assay: Cross-reactivity of PKCα-S10 with PKC isozymes; format: biochemical; conditions: peptide 1 μM, isozyme 2 ng
T1 sequence (P41743 1-596): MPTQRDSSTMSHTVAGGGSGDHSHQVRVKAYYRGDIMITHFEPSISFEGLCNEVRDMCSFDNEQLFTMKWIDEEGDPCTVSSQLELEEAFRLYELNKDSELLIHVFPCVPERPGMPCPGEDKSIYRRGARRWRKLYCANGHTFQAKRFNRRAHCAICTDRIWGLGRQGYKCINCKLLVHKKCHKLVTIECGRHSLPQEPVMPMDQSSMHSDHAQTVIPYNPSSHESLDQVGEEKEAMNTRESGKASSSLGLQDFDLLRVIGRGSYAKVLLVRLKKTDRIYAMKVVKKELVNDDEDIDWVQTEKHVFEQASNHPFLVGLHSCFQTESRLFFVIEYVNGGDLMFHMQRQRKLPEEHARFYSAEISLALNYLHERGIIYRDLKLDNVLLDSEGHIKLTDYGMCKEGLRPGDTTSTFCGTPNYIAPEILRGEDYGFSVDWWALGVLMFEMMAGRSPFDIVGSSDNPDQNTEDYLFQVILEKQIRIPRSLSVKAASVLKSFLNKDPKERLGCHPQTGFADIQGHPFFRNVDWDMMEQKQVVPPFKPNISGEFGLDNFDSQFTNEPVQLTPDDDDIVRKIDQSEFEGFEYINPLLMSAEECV
Protocol: (§1) With the kinetic parameters at hand it is possible to test the cross-reactivity of PKCα-S10 with PKC isozymes. In 12 separate reactions PKCα-S10 (1 μM) is subjected to phosphorylation with PKCα, PKCβI, PKCβII, PKCγ, PKCδ, PKCε, PKCζ, PKCη, PKCθ, PKCι, PKCμ and PKCν (2 ng).

PKCη = PKCη (Homo sapiens, UniProt P24723); assay: Cross-reactivity of PKCα-S10 with PKC isozymes; format: biochemical; conditions: peptide 1 μM, isozyme 2 ng
Protocol: as §1

PKCν = molecular target: T2, PKCν (Homo sapiens, UniProt O94806); assay: Cross-reactivity of PKCα-S10 with PKC isozymes; format: biochemical; conditions: peptide 1 μM, isozyme 2 ng
T2 sequence (O94806 1-890): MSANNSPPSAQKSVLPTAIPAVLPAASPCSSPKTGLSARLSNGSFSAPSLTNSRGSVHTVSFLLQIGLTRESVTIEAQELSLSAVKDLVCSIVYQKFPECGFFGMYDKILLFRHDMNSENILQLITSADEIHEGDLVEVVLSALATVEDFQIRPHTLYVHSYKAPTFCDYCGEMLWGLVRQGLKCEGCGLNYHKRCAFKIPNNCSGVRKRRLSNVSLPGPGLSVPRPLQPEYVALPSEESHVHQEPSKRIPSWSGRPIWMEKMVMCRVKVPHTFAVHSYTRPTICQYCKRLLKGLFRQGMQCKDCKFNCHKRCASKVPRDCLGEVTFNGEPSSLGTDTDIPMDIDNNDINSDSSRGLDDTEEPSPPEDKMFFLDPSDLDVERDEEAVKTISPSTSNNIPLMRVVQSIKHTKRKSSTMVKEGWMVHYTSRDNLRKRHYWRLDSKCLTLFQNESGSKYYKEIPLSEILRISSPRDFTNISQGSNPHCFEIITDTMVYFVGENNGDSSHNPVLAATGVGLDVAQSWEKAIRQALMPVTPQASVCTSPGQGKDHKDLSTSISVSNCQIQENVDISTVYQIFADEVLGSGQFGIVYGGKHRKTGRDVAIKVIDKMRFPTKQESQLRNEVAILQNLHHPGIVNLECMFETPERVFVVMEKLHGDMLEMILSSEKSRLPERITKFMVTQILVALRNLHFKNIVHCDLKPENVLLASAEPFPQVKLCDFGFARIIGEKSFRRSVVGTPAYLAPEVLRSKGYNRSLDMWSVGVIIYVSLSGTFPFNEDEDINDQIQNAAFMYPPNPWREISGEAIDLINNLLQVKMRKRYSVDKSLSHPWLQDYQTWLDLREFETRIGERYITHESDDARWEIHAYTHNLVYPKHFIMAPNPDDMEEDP
Protocol: as §1

PKCδ = PKCδ (Homo sapiens, UniProt Q05655); assay: Cross-reactivity of PKCα-S10 with PKC isozymes; format: biochemical; conditions: peptide 1 μM, isozyme 2 ng
Protocol: as §1

PKCβI = PKCβI (Homo sapiens, UniProt P05771); assay: Cross-reactivity of PKCα-S10 with PKC isozymes; format: biochemical; conditions: peptide 1 μM, isozyme 2 ng
Protocol: as §1

[1] = Fluorescence increase, phosphopeptide vs unphosphorylated peptide at 485 nm; format: physicochemical; conditions: phosphopeptide / unphosphorylated peptide intensity at 485 nm, generally 10 mM Mg2+
Protocol: Fluorescence experiments were performed on a Fluoromax 3 from Jobin Yvon. 5 nm emission and excitation slit widths were used. For all experiments, an excitation wavelength of 360 nm was used. Enzyme assays were performed by monitoring emission at 485 nm.
After peptide characterization, emission spectra were obtained for unphosphorylated and phosphorylated peptides under appropriate conditions. The spectra were generally acquired in the presence of 10 mM Mg^2+(although lower Mg^2+concentrations can and have been used as well) and either 0, 0.1 or 1 mM ATP in a preselected buffer (usually 20 mM HEPES, pH 7.4). Relying on the emission spectra the fold fluorescence differences were measured by dividing the fluorescence intensity of the phosphopeptide by the fluorescence intensity of its unphosphorylated counterpart at 485 nm. FIG. 2 depicts the fluorescence spectra of the phosphorylated and unphosphorylated peptides in the appropriate assay mixture: (A) emissions scans of PKCβI-1 (10 μM), 10 mM Mg(II), 3×; (B) emissions scans of PKCβI-1 (10 μM), 10 mM Mg(II), 0 mM ATP, 3×.; (C) fluorescence difference for PKCβI-1 (10 μM), 10 mM Mg(II), 3×; (D) fluorescence increase for PKCβI-1 (10 μM) at 10 mM Mg (II).

Chain of PKCδ (Q05655 whole entry): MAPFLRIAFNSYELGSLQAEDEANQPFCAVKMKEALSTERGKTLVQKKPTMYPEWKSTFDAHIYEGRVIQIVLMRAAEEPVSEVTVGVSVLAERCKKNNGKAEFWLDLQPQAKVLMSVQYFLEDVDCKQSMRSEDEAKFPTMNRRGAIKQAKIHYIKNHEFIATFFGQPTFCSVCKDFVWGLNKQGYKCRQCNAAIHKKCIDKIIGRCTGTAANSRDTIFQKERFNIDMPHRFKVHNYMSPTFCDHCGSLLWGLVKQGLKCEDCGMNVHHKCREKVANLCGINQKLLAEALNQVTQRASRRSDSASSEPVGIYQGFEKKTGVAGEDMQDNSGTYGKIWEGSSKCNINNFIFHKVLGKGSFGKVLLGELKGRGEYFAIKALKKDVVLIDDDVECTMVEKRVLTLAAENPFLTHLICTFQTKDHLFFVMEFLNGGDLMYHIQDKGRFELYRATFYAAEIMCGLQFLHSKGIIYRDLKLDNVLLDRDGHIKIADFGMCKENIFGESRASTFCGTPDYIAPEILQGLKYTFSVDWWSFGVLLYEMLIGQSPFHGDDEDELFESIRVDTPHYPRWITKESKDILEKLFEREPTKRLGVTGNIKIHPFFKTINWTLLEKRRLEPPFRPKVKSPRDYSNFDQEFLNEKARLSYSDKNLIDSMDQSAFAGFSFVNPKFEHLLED
Chain of PKCη (P24723 whole entry): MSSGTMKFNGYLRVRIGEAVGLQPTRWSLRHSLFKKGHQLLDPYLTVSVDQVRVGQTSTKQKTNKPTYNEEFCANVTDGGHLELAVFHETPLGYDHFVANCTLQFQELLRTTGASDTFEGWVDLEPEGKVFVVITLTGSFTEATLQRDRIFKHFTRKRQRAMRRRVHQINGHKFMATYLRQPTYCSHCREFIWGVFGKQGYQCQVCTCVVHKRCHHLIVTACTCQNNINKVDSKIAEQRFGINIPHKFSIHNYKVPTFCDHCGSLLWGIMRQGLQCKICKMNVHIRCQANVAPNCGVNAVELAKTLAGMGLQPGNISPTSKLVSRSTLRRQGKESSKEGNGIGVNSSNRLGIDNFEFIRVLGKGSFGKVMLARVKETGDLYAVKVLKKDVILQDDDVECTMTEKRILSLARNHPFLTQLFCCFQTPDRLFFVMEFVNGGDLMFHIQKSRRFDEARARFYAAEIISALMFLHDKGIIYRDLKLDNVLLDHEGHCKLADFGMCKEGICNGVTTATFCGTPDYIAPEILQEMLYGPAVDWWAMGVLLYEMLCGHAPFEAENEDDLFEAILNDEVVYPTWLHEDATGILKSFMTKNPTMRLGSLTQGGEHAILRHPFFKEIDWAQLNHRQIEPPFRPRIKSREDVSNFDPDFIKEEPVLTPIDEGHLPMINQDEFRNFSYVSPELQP
Chain of PKCβI (P05771 whole entry): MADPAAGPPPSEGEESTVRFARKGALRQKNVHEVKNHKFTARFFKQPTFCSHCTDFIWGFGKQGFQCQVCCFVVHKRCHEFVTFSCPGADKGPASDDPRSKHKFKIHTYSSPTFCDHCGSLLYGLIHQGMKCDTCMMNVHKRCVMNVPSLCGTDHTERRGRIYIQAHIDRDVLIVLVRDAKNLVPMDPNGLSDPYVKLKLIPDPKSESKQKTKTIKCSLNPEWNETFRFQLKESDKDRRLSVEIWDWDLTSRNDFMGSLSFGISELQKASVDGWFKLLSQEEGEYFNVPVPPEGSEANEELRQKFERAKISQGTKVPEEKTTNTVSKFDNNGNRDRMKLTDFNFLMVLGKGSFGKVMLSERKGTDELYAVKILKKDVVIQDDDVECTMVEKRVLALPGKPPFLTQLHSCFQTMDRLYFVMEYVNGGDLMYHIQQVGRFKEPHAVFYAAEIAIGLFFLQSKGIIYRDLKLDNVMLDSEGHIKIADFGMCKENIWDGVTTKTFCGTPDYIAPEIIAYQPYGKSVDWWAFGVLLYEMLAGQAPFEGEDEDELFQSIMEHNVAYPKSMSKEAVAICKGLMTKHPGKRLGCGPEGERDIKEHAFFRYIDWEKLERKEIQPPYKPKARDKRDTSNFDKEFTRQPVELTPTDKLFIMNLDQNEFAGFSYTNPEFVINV

activity of isozyme on peptide (PKCι): very little activity | activity of isozyme on peptide (PKCη): very little activity | activity of isozyme on peptide (PKCν): no activity | activity of isozyme on peptide (PKCδ): no activity | activity of isozyme on peptide compared with PKCα (PKCβI): slightly more active than PKCα
Substance: Ac-RRR-C(Sox)-ASFRRKA-CONH2 [PKCα-S10(P10), Sox chemosensor with extended recognition domain for PKCα]
Fluorescence Increase [1]: 3.9 x
